Laboratory results as given in publication PMC7570020, “The PIFs Redundantly Control Plant Defense Response against Botrytis cinerea in Arabidopsis”.

Tests used:
GST-PIF5 [1] = biological target: T1, GST-PIF5 (Arabidopsis thaliana, UniProt Q84LH8 1-444); assay: EMSA; Chemiluminescent EMSA Kit (Beyotime), manufacturer's protocol; buffer, salt, pH and temperature not stated; conditions: protein: recombinant; tags: N-terminal GST (pGEX); chain copies: 2; label: 5' biotin; blunt
T1 sequence: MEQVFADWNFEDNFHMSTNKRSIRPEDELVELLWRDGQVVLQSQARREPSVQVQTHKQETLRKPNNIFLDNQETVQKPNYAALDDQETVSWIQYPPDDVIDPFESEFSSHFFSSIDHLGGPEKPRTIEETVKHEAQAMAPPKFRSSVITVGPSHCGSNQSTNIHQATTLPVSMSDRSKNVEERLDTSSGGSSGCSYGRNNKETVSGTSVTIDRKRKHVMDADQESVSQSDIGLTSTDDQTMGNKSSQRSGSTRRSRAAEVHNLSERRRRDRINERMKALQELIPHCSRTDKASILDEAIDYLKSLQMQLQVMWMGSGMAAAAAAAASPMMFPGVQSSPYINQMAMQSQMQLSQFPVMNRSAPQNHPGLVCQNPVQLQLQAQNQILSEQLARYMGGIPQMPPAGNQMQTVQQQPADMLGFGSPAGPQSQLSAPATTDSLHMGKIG

GST-PIF4 bHLH [2] = biological target: T2, GST-PIF4 bHLH (Arabidopsis thaliana, UniProt Q8W2F3 257-306); assay: as above; conditions: protein: recombinant; tags: N-terminal GST (pGEX); chain copies: 2; label: 5' biotin; blunt
T2 chain: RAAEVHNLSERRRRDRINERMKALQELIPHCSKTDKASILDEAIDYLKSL

GST-PIF5 [3] = biological target: T1, GST-PIF5; assay: competition; increasing unlabeled competitor against labeled N1; Chemiluminescent EMSA Kit (Beyotime), manufacturer's protocol; buffer, salt, pH and temperature not stated; conditions: protein: recombinant; tags: N-terminal GST (pGEX); chain copies: 2; label: none; blunt
GST-PIF4 bHLH [4] = biological target: T2, GST-PIF4 bHLH; assay: as above; conditions: protein: recombinant; tags: N-terminal GST (pGEX); chain copies: 2; label: none; blunt

B1: ERF1 G-box probe (dsDNA)
DNA 1: GAGCCAAAAACTTTGAACACGTGCGGGATATCAAATAATCA
DNA 2: TGATTATTTGATATCCCGCACGTGTTCAAAGTTTTTGGCTC
B1: binds (GST-PIF5 [1]); binds (GST-PIF4 bHLH [2]).

B2: ERF1 competitor (dsDNA)
DNA 1: GAGCCAAAAACTTTGAACACGTGCGGGATATCAAATAATCA
DNA 2: TGATTATTTGATATCCCGCACGTGTTCAAAGTTTTTGGCTC
B2: binds (GST-PIF5 [3]); binds (GST-PIF4 bHLH [4]).
